B1: LINE1-full (parent)
chain: UACGUAGGUGGUUUUCCCCUGAUAGUGCUAAGGGGGCCUGGAAGUUUGGACUGGGCAGAGCUCAACACAGCGUGGCAAAGUGGCUGUGGCUAGACUGCCUCUCUGGAUUCCUCGUCACUCAGCAGGGCAUCUCUGAGAGAAAUGCC

Drawing on the RNAGym collection of RNA variant scans (doi:10.7554/elife.90254), this text covers self-cleavage for 167 variants.

Variants of B1 are the subject of this series. Put plainly: self-cleavage, relative activity (ratio to wild type); higher = more cleavage; in vitro, sequencing; the parent is a self-cleaving ribozyme.
For U29G A57G, the self-cleavage amounted to 0.51. Under U29C U102C stands 1.1; under U29C U102A, 1.84. Under U26A G74U stands 1.94; under U26C G58U, 0.04; under U29A C51A, 1.65. The figure for U26C U134C is 0.83; for U29C C84G it is 0.14; for C28A A117G it is 0.74. Regarding U29C U109C, the self-cleavage was 0.91. Turning to U29C A64C, the self-cleavage stood at 0.61. The figure for U29C A64G is 0.38; for G27A U132C it is 1.27; for U29A U52C it is 1.3. The figure for C28U A121G is 0.66; for C28U U143G it is 1.02; for U29A A124C it is 1.52. The figure for U29A U62C is 0. Consider U29A U132A, for which the self-cleavage stood at 1.09. On to U29A U132C, for which the self-cleavage was 0.59. For C28U U130C, the self-cleavage worked out at 0.7. The figure for U29A U91C is 0.4; for G27A A138G it is 1.02; for U29C C63U it is 0.48. Under U29C C63A stands 0.07.

As to C28A C131G, the self-cleavage worked out at 0.33. Under U26C C101A stands 0.85.

In the case of U29C U85A, the self-cleavage came out at 0.12.

For U29C U85C, the self-cleavage is 0.28. Take U29A G48A: the self-cleavage came to 1.01. The figure for C28U A140U is 0.95; for G27A A136G it is 0.93.

Regarding U29C C120A, the self-cleavage came to 1.24.

Regarding U26C A140U, the self-cleavage was found to be 0.59. The figure for C28G U85A is 0.23. Under U29C U130G stands 1.84.

With U26A U47A, the self-cleavage was found to be 0.59. Under U26A U47G stands 1.6; under U26A U47C, 1. Under G27A U112C stands 1.7. As for C28A A78G, the self-cleavage was determined as 0.61. C28U U96A: the self-cleavage amounted to 0.06.

Regarding U29C A107G, the self-cleavage was 0.7. Under U29C A107U stands 1.21; under U29C U81A, 1.3.

Consider U29C U81C, for which the self-cleavage was found to be 1.27.

As to U26A U39C, the self-cleavage was 0.73. Under U29C G53A stands 0.94; under U26G A138G, 1.21; under U26G C38U, 0.91.

As to U29G C113U, the self-cleavage came to 0.66. The figure for G27C U109C is 0.92.

As for U26C A59U, the self-cleavage was determined as 0.84. Regarding C28A U134C, the self-cleavage was 1.92. Under U26C A117G stands 1.51. In the case of U26C A117U, the self-cleavage worked out at 2.25. The figure for C28U G89U is 0.06; for U26C C133U it is 0.98. The figure for U29A A77U is 1.79; for U29C U143A it is 1.17; for U29A A94G it is 0.54. Under U26A U100C stands 1.07; under U26A U100G, 1.31; under U26A G82A, 1.18. As for U29A U134C, the self-cleavage was determined as 0.87. The figure for U26G U87C is 0.3. Under U26G U87A stands 0; under U26C G53U, 1.2.

For U29G A124G, the self-cleavage amounted to 0.44.

Consider C28G U143A, for which the self-cleavage was 1.45. The figure for U29A A117U is 1.06; for U26C U47A it is 1.16. Under U26G A142G stands 1.28. Under U26C A94G stands 0.39; under U26C A94U, 0.28; under U29A U45C, 0.96. Take U29A U45G: the self-cleavage is 0.38. The figure for C28A U115C is 1.07; for G27A U102C it is 0.84; for U26C U62G it is 0.07.

Regarding U26C U62A, the self-cleavage was 0.02. The figure for U26C U39C is 0.9; for U29C C123U it is 1.21. The figure for U26C U130G is 1.61; for U29A U47A it is 1.6.

Take G27A U143C: the self-cleavage was 1.38. The figure for U26C A64G is 0.39; for G27A A69C it is 0.11.

For the variant U26A U29A, the self-cleavage is 1.12. The figure for U26A U29C is 1.44; for U26C C98U it is 0.11; for G27A G54A it is 0.59.

C28A G88A: the self-cleavage worked out at 0. G27A U87C: the self-cleavage came to 0.19.

Take U26G G27A: the self-cleavage stood at 1.01. Under G27A G55A stands 0.21; under U29C U104A, 1.12; under U29C U104C, 1. The figure for U29C U112C is 1.07; for U29A G72A it is 1.13; for U29C U115C it is 1.75.

Turning to U29C A67G, the self-cleavage was 0.76.

With U29C A67U, the self-cleavage was 0.12. Under U29C G89A stands 0.06.

For U29A C66U, the self-cleavage was 0.25. Under U26C A78G stands 1.1; under U29A G44A, 0.61.

Turning to U26C G75U, the self-cleavage worked out at 0.57. Consider U29C A42G, for which the self-cleavage amounted to 1.66.

U26A U115C: the self-cleavage turned out to be 1.29.

For the variant G27A, the self-cleavage was 1.07. Under G27C stands 1.11; under G27U, 0.97; under U26C A67U, 0.06. The figure for U29C G48A is 0.88; for U26C A107C it is 1.89. Under U29C A65C stands 0.1; under U29C A65G, 0.09. Turning to C28U A92G, the self-cleavage amounted to 0.11.

On to U26C U29A, for which the self-cleavage was 1.35. For U29C U100C, the self-cleavage is 1.49. Under U26C G127A stands 1.37; under U26C C61A, 0.06. The figure for U26C C61U is 0.04; for U26C A136U it is 1.82; for U29A U143C it is 1.16.

Take U29A U143A: the self-cleavage was found to be 0.84. The figure for U26G G60C is 0.07.

As to U26G G125U, the self-cleavage was determined as 1.59.

With U29C C116U, the self-cleavage was found to be 0.85. Under U29C U52C stands 1.84.

Turning to U29C U52A, the self-cleavage was 1.16. Consider C28U A141U, for which the self-cleavage was determined as 0.54.

Take U29C U62C: the self-cleavage stood at 0.15.

Take U29C A94G: the self-cleavage is 0.54. Under G27A U130C stands 1.34; under U26A U119A, 0.78; under U26A U119G, 1.45. The figure for U29C C66U is 0.07; for G27A U108C it is 1.15; for G27U U134A it is 1.29. The figure for G27A U73C is 0.93; for G27A U73A it is 0.87; for U26C A57G it is 1.14. As to U26C A57U, the self-cleavage turned out to be 0.14.

For the variant U26G U91C, the self-cleavage is 0.44. Under U26C U112C stands 1.36; under U26C A124G, 0.64; under G27A A67G, 0.45. In the case of G27A A42U, the self-cleavage was found to be 0.99. Under G27A C98A stands 0.14; under U26A U104A, 0.98. The figure for U26C A77U is 1.55; for U26G U85C it is 0.14. The figure for U29C A124G is 1.02; for U29C A124U it is 1.04.

U29C A124C: the self-cleavage worked out at 1.23.

As to U26A U45G, the self-cleavage came out at 0.6.

With U26C C37U, the self-cleavage came to 0.77. With U26C U87A, the self-cleavage turned out to be 0.08. Under U29C A31G stands 1.14; under U26C C63U, 0.66; under U26A G114A, 0.67. Under C28A C116U stands 1.34; under U26A U132A, 1.34. Under U29C A121U stands 1.5; under U29C A121C, 1.93.
